Data taken from the supplement of paper PMC9170038.

Test system: MS2 coat protein
Test: apparent KD of MS2 coat protein; designed switch direction (-1 OFF switch, 1 ON switch): -1; higher = weaker reporter binding
Procedure, shortened: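 The apparent KD reported per design is the median over clusters of curve fits to normalised cluster fluorescence. The RNA switches were transcribed on Illumina chips by stalled E. coli RNA polymerase. SNAP-549-labelled MS2 coat protein was titrated from 0.7 or 1.5 nM, doubling up to 3 µM, in Tris-HCl pH 7.5 buffer containing KCl, MgCl2, BSA, DTT, tRNA and Tween-20, with no input, 200 uM small-molecule ligand, or an oligonucleotide input.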

[1] = Eterna round: R95, input ligand: microRNA oligo, concentration not stated
[2] = input ligand: microRNA oligo, concentration not stated

Sequence | apparent KD of MS2 coat protein [1] [nM] | apparent KD of MS2 coat protein (input ligand: FMN 200 uM) [nM] | apparent KD of MS2 coat protein [2] [nM] | apparent KD of MS2 coat protein (input ligand: none) [nM] | apparent KD of MS2 coat protein (Eterna round: R95, input ligand: FMN 200 uM) [nM] | apparent KD of MS2 coat protein (Eterna round: R95, input ligand: none) [nM]
CGUGCGUAUGUGAGGAUAUGCUGGUCCUUGGAUCGGCAGAAGGCACAUGAGGAUCACCCAUGUGGUGUCGUACA [salish99_Bmod_ex4_088] (puzzle: Brourd's mod of Exclusion 4) | 215 | – | – | – | – | –
UCGGCGCGAGGAUAUACGUUUGCUCUUUUUCGUUUUUGUGUACAUGAGGAUCACCCAUGUAGAAGGCGCGCCGC [Apr-15 SS2-19] (puzzle: Exclusion 2) | 17 | – | – | – | – | –
UCGCUGCGAGGAUAUACGUUUGCGCGCUUUCGUUUGCGCGUACAUGAGGAUCACCCAUGUAGAAGGCGCGCUGC [Apr-15 SS2-7] (puzzle: Exclusion 2) | 13.1 | – | – | – | – | –
AUAAUUAGUUCAGGAUAUCAGCACGUGUAGUGCUGAGAAGGGAACAUGAGGAUCACCCAUGUGAUCAAUAUUAUAAUUUUAAUU [ENG1/12-B3] (Eterna round: R96, puzzle: Exclusion NG 1) | – | 420 | 925 | 1190 | – | –
GUCAUCGCAGGAUAUUAGAAUUUUUACAUGAGGAUCACCCAUGUUAAUUGGGUCUAAGUCUAAGAAGGGCGAUGAA [JR_EX5_Sub012] (Eterna round: R97, puzzle: Exclusion 5) | – | 105 | – | 32.4 | – | –
CUCCAUACAGGAUAUACAGGCGGUGGAGCCGUAUGAUCAACACAUGAGGAUCACCCAUGUAGAAGGGUGUGUAC [Eternabot (L2) Solution 25] (Eterna round: R97, puzzle: Exclusion 2) | – | 436 | – | 642 | – | –
AAGAUGCGGAUAGGAUAUGGAAAAAAAAAAGGAUUAGAAGGGUUGGUUAAAAUACAUGAGGAUCACCCAUGUGAAUCAUGAGAA [AK ExNG1-2.2] (Eterna round: R96, puzzle: Exclusion NG 1) | – | 392 | 188 | 186 | – | –
UUGAAGUCGUCAGGAUAUAGUUUUAAUGUCAUGCGUAUGUUCUUACAUGAGGAUCACCCAUGUCGCUAGAAGGGACUAUAGAUU [JR_ExcNG2_Sub009] (Eterna round: R96, puzzle: Exclusion NG 2) | – | 53.3 | 36.4 | 51.6 | – | –
ACAAGCUUUGUUGGGUGGUACAUGAGGAUCACCCAUGUUUGCCGCGUCUUGUGGGCCCGGGCCCGCGGCCCGGGCCC [-41.8, -63.9, A 12%] (Eterna round: R97, puzzle: Sensor, turn-off variant 1) | – | 403 | – | 460 | – | –
CCGCUGCAAGGAUAUACUUGCGGUGGUGUUCGAGUUCUUCUACUUGAGGAUCACCCAAGUAGAAGGUGCAAAAC [jl-ex2.4.56 ViennaUCT mod] (Eterna round: R97, puzzle: Exclusion 2) | – | 12.6 | – | 13.5 | – | –
CAGUACUGAGGAUAUACAUGAGGAUCACCCAUGUGUCCUCUAUUAGGAAACUAGUUAUGUAGAAGGCAGUACUG [Omei Ex3 Mod of Eli 4.27 v10] (Eterna round: R97, puzzle: Exclusion 3) | – | 1060 | – | 1050 | – | –
UAGCCAUCGUGAGAUGGCUUUCAUACAUGAGGAUCACCCAUGUAGGAUAUCGAUUGCUUUGCAGUCGAGAAGGGCAUGUAUAAU [JL ENG3 3.95] (Eterna round: R96, puzzle: Exclusion NG 3) | – | 34.8 | 22.8 | 29.1 | – | –
UCGCAGGGAGGAUAUACACACAGGUGACGCAGCCCAAAAGAACAUGAGGAUCACCCAUGUAGAAGGCUCAAUAU [Eternabot (Original) Solution 2] (Eterna round: R97, puzzle: Exclusion 2) | – | 51.5 | – | 31.2 | – | –
GGUGUGCCAGUCAGGAUAUGAUCCACGCCCGUAGGUCAGAAGGGACUUGAGGAUCACCCAAGUUGCAAGAAAGA [Gesoxedi] (Eterna round: R97, puzzle: Brourd's mod of Exclusion 4) | – | 100 | – | 97.3 | – | –
UCGAUGUGAGGAUAUAUUUUUAUUAGUCCUUAUGUUUUAUAACUUGAGGAUCACCCAAGUAGAAGGCGCUACGU [JR_Ex2_Sub062] (Eterna round: R97, puzzle: Exclusion 2) | – | 25.5 | – | 40.9 | – | –
AAGAAACAUGAGGAUCACCCAUGUGAGGAUAUGUAAAAGAAAAUAAAAUAAAUAAUAAACAGAAGGCACAAAGG [Mat - Mod of Hog D18] (puzzle: Exclusion 1) | 33.6 | – | – | – | 58.2 | 40.9
UAAGAUUACCGAGGAUAUGCUGGUUUAUCUCAAGCAGAAGGCGGACUCAACAUGAGGAUCACCCAUGUAAGACGGGUACUAGAU [Ex NG1 #12] (Eterna round: R96, puzzle: Exclusion NG 1) | – | 61.5 | 69.1 | 97.1 | – | –
UUUAUAUAGUAAGGAUAUGUAUUAAUUUUAUAGACAGAAGGUACUGACAUGAGGAUCACCCAUGUUUUAGUGUGGGCAUGUAGU [JMF's solution 94] (Eterna round: R96, puzzle: Exclusion NG 1) | – | – | 299 | – | – | –
